The text below walks through data of article doi:10.1101/2022.11.10.515920.

The target of assay [1] is adalimumab produced in BY-2 lysate. As to the kind of experiment: SPR. (In general: SPR reads the build-up and loss of mass on a sensor chip optically.)
Assay [2] addresses commercial adalimumab reference product from CHO cells (Humira). As to the kind of experiment: SPR.

pKd: −log10 of the molar value.

Chain of human FcR I (CD64) (P12314 16-292): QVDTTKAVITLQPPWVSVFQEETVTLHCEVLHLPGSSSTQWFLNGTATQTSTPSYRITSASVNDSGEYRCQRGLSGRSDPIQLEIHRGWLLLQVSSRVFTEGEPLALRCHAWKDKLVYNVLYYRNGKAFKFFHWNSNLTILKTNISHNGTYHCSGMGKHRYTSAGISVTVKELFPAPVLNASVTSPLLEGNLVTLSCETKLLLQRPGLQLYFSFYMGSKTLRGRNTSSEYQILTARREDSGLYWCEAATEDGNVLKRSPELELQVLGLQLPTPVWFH

“human FcR I (CD64) (from UniProt P12314) (receptor)”: the pKd in assay [1] is 9.45; in assay [2], 9.80.

In general, pKd refers to −log10 of the Kd, conventionally taken in molar units.
